Test results reported in patent publication US20250134988A1 (WISTAR INSTITUTE OF ANATOMY AND BIOLOGY, published 2025).
Substitutions are numbered along the chain they refer to. In names and notes the source's numbering stands.

B1: C2691 (antibody, V domains shown)
VH: QVQLQQSGPELVRPGESVKISCKGSGYTFTDYAMHWVKQSHAKSLEWIGIISFYYDNTKYNQNFKGKATMTVDKSSSTAYMELARLTSEDSAIYFCASQGIHYYGSFAYWGQGTLVTVSA
VL: DIVMTQSQKFMSTSVGDRVSVSCKASQNVGTNLGWYQQKPGQSPKALIYSASYRYSGVPDRFTGSGSGTDFTLTISNVQSEDLAEYFCQQYNSSPLTFGAGTKLELK
notes: also called lineage HV1-67/KV6-15 antibody C2691
B2: Y111A (antibody, V domains shown)
VH: B1 VH with Y103A
VL: B1 VL
notes: member of the group m29; also called C2691 Y111A; C2691 CDR3 alanine scanning mutant
B3: Q107A (antibody, V domains shown)
VH: B1 VH with Q99A
VL: B1 VL
notes: member of the group m29; also called C2691 Q107A; C2691 CDR3 alanine scanning mutant
B4: H110A (antibody, V domains shown)
VH: B1 VH with H102A
VL: B1 VL
notes: member of the group m29; also called C2691 H110A; C2691 CDR3 alanine scanning mutant
B5: Y112A (antibody, V domains shown)
VH: B1 VH with Y104A
VL: B1 VL
notes: member of the group m29; also called C2691 Y112A; C2691 CDR3 alanine scanning mutant
B6: I109A (antibody, V domains shown)
VH: B1 VH with I101A
VL: B1 VL
notes: member of the group m29; also called C2691 I109A; C2691 CDR3 alanine scanning mutant

Key:
CoV2_5P_FPKO1 = molecular target: T1, CoV2_5P_FPKO1 (SARS-CoV-2, UniProt P0DTC2 14-1208); experiment: ELISA
T1 construct: also called 5P KO1

CoV2_5P_NonSFP = molecular target: T2, CoV2_5P_NonSFP (SARS-CoV-2, UniProt P0DTC2 14-1208); experiment: ELISA, AUC, on 5P spikes with swapped fusion peptides
T2 construct: also called scrambled fusion peptide spike

[1] = molecular target: T3, CoV2_5P prefusion-stabilized spike protein (SARS-CoV-2, UniProt P0DTC2 14-1208); experiment: ELISA, AUC ratio to wildtype C2691
T3 construct: also called 5P trimer; wildtype 5P

| Binder | binding result (CoV2_5P_FPKO1) | binding result (CoV2_5P_NonSFP) | binding result [1] |
| --- | --- | --- | --- |
| B1 | binds |  |  |
| B2 |  | no binding |  |
| B3 |  | no binding |  |
| B4 |  | no binding | binds |
| B5 |  | no binding | binds |
| B6 |  | no binding | binds |
